T1: human VEGF-A165b (human, UniProt P15692)
T1 chain: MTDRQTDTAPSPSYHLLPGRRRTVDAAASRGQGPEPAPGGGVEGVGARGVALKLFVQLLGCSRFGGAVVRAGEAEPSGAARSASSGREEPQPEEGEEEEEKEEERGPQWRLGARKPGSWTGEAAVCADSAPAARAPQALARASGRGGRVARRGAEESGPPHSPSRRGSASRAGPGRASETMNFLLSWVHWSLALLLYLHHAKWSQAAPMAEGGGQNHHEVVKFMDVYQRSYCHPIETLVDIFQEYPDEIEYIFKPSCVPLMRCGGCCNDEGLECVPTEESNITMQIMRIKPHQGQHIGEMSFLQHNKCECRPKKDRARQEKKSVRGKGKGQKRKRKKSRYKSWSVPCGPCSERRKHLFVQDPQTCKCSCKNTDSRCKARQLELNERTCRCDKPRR

B1: HC0 LC0 (chimeric Ab 1126) (antibody, V domains shown)
VH: EVKLLESGGGLVQPGGSLKLSCAASGFDFSRYWMSWVRQAPGKGLEWIGEIHPYSSTINYTPSVKDKFIISRDNAKNTLYLQMSEVRSEDTALYYCARAFAYWGQGTLVTVSA
VL: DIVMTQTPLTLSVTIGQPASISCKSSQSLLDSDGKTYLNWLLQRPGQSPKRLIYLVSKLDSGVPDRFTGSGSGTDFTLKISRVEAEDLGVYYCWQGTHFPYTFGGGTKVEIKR
B2: HC3 LC1 (antibody, V domains shown)
VH: EVQLVESGGGLVQPGGSLRLSCAASGFDFSRYWMSWVRQAPGKGLEWISEIHPYSSTINYTPSVKDRFTISRDNAKNSLYLQMNSLRDEDTALYYCARAFAYWGQGTLVTVSS
VL: DVVMTQSPLSLPVTLGQPASISCKSSQSLLDSDGKTYLNWFQQRPGQSPRRLIYLVSKLDSGVPDRFSGSGSGTDFTLKISRVEAEDVGVYYCWQGTHFPYTFGGGTKVEIKR
B3: HC4 LC1 (antibody, V domains shown)
VH: EVQLVESGGGLVQPGGSLRLSCAASGFDFSRYWMSWVRQAPGKGLEWVAEIHPYSSTINYTPSVKDRFTISRDNAKNSLYLQMNSLRSEDTAVYYCARAFAYWGQGTLVTVSS
VL: DVVMTQSPLSLPVTLGQPASISCKSSQSLLDSDGKTYLNWFQQRPGQSPRRLIYLVSKLDSGVPDRFSGSGSGTDFTLKISRVEAEDVGVYYCWQGTHFPYTFGGGTKVEIKR
B4: HC4 LC2 (Vexobicizumab) (antibody, V domains shown)
VH: EVQLVESGGGLVQPGGSLRLSCAASGFDFSRYWMSWVRQAPGKGLEWVAEIHPYSSTINYTPSVKDRFTISRDNAKNSLYLQMNSLRSEDTAVYYCARAFAYWGQGTLVTVSS
VL: DVVMTQSPLSLPVTLGQPASISCRSSQSLLDSDGKTYLNWELQRPGQSPRRLIYLVSKLDSGVPDRFSGSGSGTDFTLKISRVEAEDVGVYYCWQGTHFPYTFGQGTKVEIKR
B5: HC5 LC2 (antibody, V domains shown)
VH: EVQLVESGGGLVQPGGSLRLSCAASGFDFSRYWMSWVRQAPGKGLEWVSEIHPYSSTINYTPSVKDRFTISRDNAKNSLYLQMNSLRAEDTAVYYCARAFAYWGQGTLVTVSA
VL: DVVMTQSPLSLPVTLGQPASISCRSSQSLLDSDGKTYLNWELQRPGQSPRRLIYLVSKLDSGVPDRFSGSGSGTDFTLKISRVEAEDVGVYYCWQGTHFPYTFGQGTKVEIKR
B6: HC3 LC2 (antibody, V domains shown)
VH: EVQLVESGGGLVQPGGSLRLSCAASGFDFSRYWMSWVRQAPGKGLEWISEIHPYSSTINYTPSVKDRFTISRDNAKNSLYLQMNSLRDEDTALYYCARAFAYWGQGTLVTVSS
VL: DVVMTQSPLSLPVTLGQPASISCRSSQSLLDSDGKTYLNWELQRPGQSPRRLIYLVSKLDSGVPDRFSGSGSGTDFTLKISRVEAEDVGVYYCWQGTHFPYTFGQGTKVEIKR
B7: HC1 LC1 (antibody, V domains shown)
VH: EVQLLESGGGLVKPGGSLRLSCAASGFDFSRYWMSWIRQAPGKGLEWVSEIHPYSSTINYTPSVKDRFTISRDNAKNSLYLQMNSLRAEDTAVYYCARAFAYWGQGTLVTVSS
VL: DVVMTQSPLSLPVTLGQPASISCKSSQSLLDSDGKTYLNWFQQRPGQSPRRLIYLVSKLDSGVPDRFSGSGSGTDFTLKISRVEAEDVGVYYCWQGTHFPYTFGGGTKVEIKR
B8: HC2 LC1 (antibody, V domains shown)
VH: EVQLVESGGGLVQPGGSLRLSCAASGFDFSRYWMSWVRQAPGKGLEWVAEIHPYSSTINYTPSVKDRFIISRDNAKNSVYLQLNSLRAEDTAVYYCARAFAYWGQGTLVTVSS
VL: DVVMTQSPLSLPVTLGQPASISCKSSQSLLDSDGKTYLNWFQQRPGQSPRRLIYLVSKLDSGVPDRFSGSGSGTDFTLKISRVEAEDVGVYYCWQGTHFPYTFGGGTKVEIKR
B9: HC5 LC1 (antibody, V domains shown)
VH: EVQLVESGGGLVQPGGSLRLSCAASGFDFSRYWMSWVRQAPGKGLEWVSEIHPYSSTINYTPSVKDRFTISRDNAKNSLYLQMNSLRAEDTAVYYCARAFAYWGQGTLVTVSA
VL: DVVMTQSPLSLPVTLGQPASISCKSSQSLLDSDGKTYLNWFQQRPGQSPRRLIYLVSKLDSGVPDRFSGSGSGTDFTLKISRVEAEDVGVYYCWQGTHFPYTFGGGTKVEIKR
B10: HC2 LC2 (antibody, V domains shown)
VH: EVQLVESGGGLVQPGGSLRLSCAASGFDFSRYWMSWVRQAPGKGLEWVAEIHPYSSTINYTPSVKDRFIISRDNAKNSVYLQLNSLRAEDTAVYYCARAFAYWGQGTLVTVSS
VL: DVVMTQSPLSLPVTLGQPASISCRSSQSLLDSDGKTYLNWELQRPGQSPRRLIYLVSKLDSGVPDRFSGSGSGTDFTLKISRVEAEDVGVYYCWQGTHFPYTFGQGTKVEIKR
B11: HC1 LC2 (antibody, V domains shown)
VH: EVQLLESGGGLVKPGGSLRLSCAASGFDFSRYWMSWIRQAPGKGLEWVSEIHPYSSTINYTPSVKDRFTISRDNAKNSLYLQMNSLRAEDTAVYYCARAFAYWGQGTLVTVSS
VL: DVVMTQSPLSLPVTLGQPASISCRSSQSLLDSDGKTYLNWELQRPGQSPRRLIYLVSKLDSGVPDRFSGSGSGTDFTLKISRVEAEDVGVYYCWQGTHFPYTFGQGTKVEIKR

For this assay, the target named is T1, human VEGF-A165b. Kind of assay: BLI 25C.
One may read the Kd as the equilibrium constant for the complex coming apart. Higher therefore signals lower affinity. As for B1, the affinity, expressed as Kd, was 0.3 nM.

As to B2, the affinity, expressed as Kd, was 1.5 nM.

Consider B3, for which binding was put at a Kd of 0.9 nM.

B4 showed a Kd of 0.6 nM.

The molecule B5 came in with a Kd of 0.6 nM.

Molecule B6 gave a Kd of 1.17 nM.

On to B7, for which the Kd was 5 nM.

Regarding B8, the affinity, expressed as Kd, was 4.4 nM.

Turning to B9, the affinity, expressed as Kd, was 3.2 nM.

The molecule B10 had a Kd of 3.6 nM.

Molecule B11 showed a Kd of 2.1 nM.
